Measurements as given in publication PMC8565845.

Tests used:
[1] = target: HBV core protein mutant Cp-Y132A (assembly-incompetent) homodimer (hepatitis B virus (HBV)) (UniProt P03147); test: optical tweezers force spectroscopy
[2] = target: HBV core protein mutant Cp-Y132A (assembly-incompetent) homodimer (hepatitis B virus (HBV)) (UniProt P03147); test: HAP-Alexa488 staining with photobleaching step counting

Substance: HBV core protein mutant Cp-Y132A (assembly-incompetent) homodimer (from UniProt P03147 1-149) (natural protein)
- ω (unitless association constant for two nucleic acid-bound ligands) [1]: 500
- stoichiometry N [2]: 2 Cp dimers
